As a reminder, the Kd is the free concentration of one partner at which half of the binding sites on the other are occupied at equilibrium, for simple one-to-one binding.

The source of these data is patent US20190127444A1 (published 2019).

For assay [1], the target named is LukE, recombinant polyhistidine-tagged variant. Description: SPR.
Assay [2] addresses SdgB glycosylated SdrC4 protein (UniProt O86487 51-910). The assay is described as follows: SPR. (In general: In SPR one partner is held on a chip, and binding of the other changes the refractive index at the surface.)

B1: mAb 5133 PRASA A6 HC-L4-E (Table 1 Construct 15) (bispecific antibody)
heavy: EVQLVETGGGLVKPGGSLRLSCSASRFSFRDYYMTWIRQAPGKGPEWVSHISGSGSTIYYADSVRGRFTISRDNAKSSLYLQMDSLQADDTAVYYCARGGRATSYYWVHWGPGTLVTVSSASTKGPSVFPLAPSSKSTSGGTAALGCLVKDYFPEPVTVSWNSGALTSGVHTFPAVLQSSGLYSLSSVVTVPSSSLGTQTYICNVNHKPSNTKVDKKVEPKSCDKTHTCPPCPAPPVAGPDVFLFPPKPKDTLMISRTPEVTCVVVDVSHEDPEVKFNWYVDGVEVHNAKTKPREEQYNSTYRVVSVLTVLHQDWLNGKEYKCKVSNAALPAPIAKTISKAKGQPREPQVYTLPPSRDELTKNQVSLTCLVKGFYPSDIAVEWESNGQPENNYKTTPPVLDSDGSFFLYSKLTVDKSRWQQGNVFSCSVMHEALHNRFTQKSLSLSPGKGGGGSGGGGSGGGGSGGGGSMLPAPKNLVVSRVTEDSARLSWTAPDAAFDSFHIEYAEPWVWGEAIVLTVPGSERSYDLTGLKPGTEYVVFIGGVKGGHNSTPLSAIFTT
light: EIVLTQSPATLSLSPGERATLSCRASQSVSGYLGWYQQKPGQAPRLLIYGASSRATGIPDRFSGSGSGTDFTLTISRLEPEDFAVYYCQQYGSSPLTFGGGTKLEIKRTVAAPSVFIFPPSDEQLKSGTASVVCLLNNFYPREAKVQWKVDNALQSGNSQESVTEQDSKDSTYSLSSTLTLSKADYEKHKVYACEVTHQGLSSPVTKSFNRGEC
On to B1, for which the Kd in assay [1] came out at 880 pM; in assay [2] it was 630 pM.

B2: mAb 5133 PRASA A6 HC-L4-E-L4-AB (Table 1 Construct 11) (bispecific antibody)
heavy: EVQLVETGGGLVKPGGSLRLSCSASRFSFRDYYMTWIRQAPGKGPEWVSHISGSGSTIYYADSVRGRFTISRDNAKSSLYLQMDSLQADDTAVYYCARGGRATSYYWVHWGPGTLVTVSSASTKGPSVFPLAPSSKSTSGGTAALGCLVKDYFPEPVTVSWNSGALTSGVHTFPAVLQSSGLYSLSSVVTVPSSSLGTQTYICNVNHKPSNTKVDKKVEPKSCDKTHTCPPCPAPPVAGPDVFLFPPKPKDTLMISRTPEVTCVVVDVSHEDPEVKFNWYVDGVEVHNAKTKPREEQYNSTYRVVSVLTVLHQDWLNGKEYKCKVSNAALPAPIAKTISKAKGQPREPQVYTLPPSRDELTKNQVSLTCLVKGFYPSDIAVEWESNGQPENNYKTTPPVLDSDGSFFLYSKLTVDKSRWQQGNVFSCSVMHEALHNRFTQKSLSLSPGKGGGGSGGGGSGGGGSGGGGSMLPAPKNLVVSRVTEDSARLSWTAPDAAFDSFHIEYAEPWVWGEAIVLTVPGSERSYDLTGLKPGTEYVVFIGGVKGGHNSTPLSAIFTTGGGGSGGGGSGGGGSGGGGSMLPAPKNLVVSRVTEDSARLSWTAPDAAFDSFWITYEEKFYRGEAIVLTVPGSERSYDLTGLKPGTEYKVWIVGVKGGQGSWPLSAIFTT
light: B1 light
Take B2: the Kd in assay [1] turned out to be 1010 pM; in assay [2] it was 910 pM.
